Data reported in US20240117030A1 (Pfizer, published 2024).

Experiments:
Assay in all cases: cell-based or functional assay
recombinant human IL-13 = recombinant human IL-13 (human, UniProt P35225 35-146)
recombinant human IL-4 = biological target: T1, recombinant human IL-4 (human, UniProt P05112 25-153)
T1 sequence (looked up): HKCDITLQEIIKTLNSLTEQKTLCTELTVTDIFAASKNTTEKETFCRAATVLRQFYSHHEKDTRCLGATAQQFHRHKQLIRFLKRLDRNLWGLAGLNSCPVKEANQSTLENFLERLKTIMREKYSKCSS

[1] = biological target: recombinant human TSLP (glycosylated long form) (human, UniProt Q969D9 29-159)

Sequence of recombinant human IL-13 (P35225 35-146 limits assumed): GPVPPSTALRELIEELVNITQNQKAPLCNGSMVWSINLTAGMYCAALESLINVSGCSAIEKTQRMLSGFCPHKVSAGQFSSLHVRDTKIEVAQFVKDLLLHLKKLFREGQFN

B1: IL413TSLP-0001 (other)
heavy: EVTLRESGPALVKPTQTLTLTCTFSGFSLSNFGEGLSWIRQPPGKGLEWLAHIYWDDDKRYNPSLKSRLTISKDTSRNQVVLTMTNMDPVDTATYYCARRETVFYWYFDVWGQGTTVTVSSASTKGPSVFPEAPSSKSTSGGTAALGCLVKDYFPEPVTVSWNSGALTSGVHTFPAVLQSSGLYSLGSVVTVPSSSLGTQTYICNVNHKPSNTKVDKKVEPKSCDKTHTCPPCPAPEAAGAPSVFLFPPKPKDTLMISRTPEVTCVVVDVSHEDPEVKFNWYVDGVEVHNAKTKPREEQYNSTYRVVSVLTVLHQDWLNGKEYKCKVSNKALPAPIEKTISKAKGQPREPQVYTLPPCREEMTKNQVSLSCAVKGFYPSDIAVEWESNGQPENNYKTTPPVLDSDGSFFLVSKLTVDKSRWQQGNVFSCSVMHEALHNHYTQKSLSLSPGK
chain 1: QMQLVESGGGVVQPGRSLRLSCAASGFTFRTYGMHWVRQAPGKGLEWVAVIWYDGSNKHYADSVKGRFTITRDNSKNTLNLQMNSLRAEDTAVYYCARAPQWELVHEAFDIWGQGTMVTVSSGQPKAAPSVTLFPPSSEELQANKATLVCLISDFYPGAVTVAWKADSSPVKAGVETTTPSKQSNNKYAASSYLSLTPEQWKSHRSYSCQVTHEGSTVEKTVAPTECSGGGGSEVQLVESGGGLVQPGGSLRLSCAASGFTFSSYAMSWVRQAPGKGLEWVASISSGDTTYYPDSVKGRFTISRDNAKNSLYLQMNSLRAEDTAVYYCARNEGYYFGLTLWGQGTLVTVSSASTKGPSVFPKAPSSKSTSGGTAALGCLVKDYFPEPVTVSWNSGALTSGVHTFPAVLQSSGLYSLSSSVTVPSSSLGTQTYICNVNHKPSNTKVDKKVEPKSCDKTHTCPPCPAPEAAGAPSVFLFPPKPKDTLMISRTPEVTCVVVDVSHEDPEVKFNWYVDGVEVHNAKTKPREEQYNSTYRVVSVLTVLHQDWLNGKEYKCKVSNKALPAPIEKTISKAKGQPREPQVCTLPPSREEMTKNQVSLWCLVKGFYPSDIAVEWESNGQPENNYKTTPPVLDSDGSFFLYSKLTVDKSRWQQGNVFSCSVMHEALHNHYTQKSLSLSPGK
light 1: DIQMTQSPSSLSASVGDRVTITCKASQSVDEDGDSYMNWYQQKPGKAPKLLIYAASNLESGVPSRFSGSGSGTDFTLTISSLQPEDFATYYCQQSNEDPPTFGGGTKVEIKRTVAAPSVFIFPPSDEQLKSGTASVSCLLNNFYPREAKVQWKVDNALQSGNSQESVTEQDSKDSTYSLKSTLTLSKADYEKHKVYACEVTHQGLSSPVTKSFNRGEC
light 2: DIQMTQSPSSLSASVGDRVTITCKASESVDHFGWSLVHWYQQKPGKAPKLLIYRASNLESGVPSRFSGSGSGTDFTLTISSLQPEDFATYYCQQSNEDPWTFGGGTKVEIKRTVAAPSVFIFPPSDEQLKSGTASVSCLLNNFYPREAKVQWKVDNALQSGNSQESVTEQDSKDSTYSLDSTLTLSKADYEKHKVYACEVTHQGLSSPVTKSFNRGEC
chain 2: SYVLTQPPSVSVAPGQTARITCGGNNLGSKSVHWYQQKPGQAPVLVVYDDSDRPSWIPERFSGSNSGNTATLTISRGEAGDEADYYCQVWDSSSDHVVFGGGTKLTVLASTKGPSVFPLAPSSKSTSGGTAALGCLVKDYFPEPVTVSWNSGALTSGVHTFPAVLQSSGLYSLSSVVTVPSSSLGTQTYICNVNHKPSNTKVDKKVEPKSC
Which results are given for B1?
a-hIL-13 bioassay (IC50, pM) (recombinant human IL-13): 47 pM; a-hIL-4 bioassay IC50, pM) (recombinant human IL-4): 7.15 pM; a-TSLP TARC bioassay (IC50; pM) [1]: 12.6 pM

B2: IL413TSLP-0007 (other)
heavy: EVTLRESGPALVKPTQTLTLTCTFSGFSLSNFGEGLSWIRQPPGKGLEWLAHIYWDDDKRYNPSLKSRLTISKDTSRNQVVLTMTNMDPVDTATYYCARRETVFYWYFDVWGQGTTVTVSSASTKGPSVFPEAPSSKSTSGGTAALGCLVKDYFPEPVTVSWNSGALTSGVHTFPAVLQSSGLYSLGSVVTVPSSSLGTQTYICNVNHKPSNTKVDKKVEPKSCDKTHTCPPCPAPEAAGAPSVFLFPPKPKDTLMISRTPEVTCVVVDVSHEDPEVKFNWYVDGVEVHNAKTKPREEQYNSTYRVVSVLTVLHQDWLNGKEYKCKVSNKALPAPIEKTISKAKGQPREPQVYTLPPCREEMTKNQVSLSCAVKGFYPSDIAVEWESNGQPENNYKTTPPVLDSDGSFFLVSKLTVDKSRWQQGNVFSCSVMHEALHNHYTQKSLSLSPGK
chain 1: SYVLTQPPSVSVAPGQTARITCGGNNLGSKSVHWYQQKPGQAPVLVVYDDSDRPSWIPERFSGSNSGNTATLTISRGEAGDEADYYCQVWDSSSDHVVFGGGTKLTVLASTKGPSVFPLAPSSKSTSGGTAALGCLVKDYFPEPVTVSWNSGALTSGVHTFPAVLQSSGLYSLSSVVTVPSSSLGTQTYICNVNHKPSNTKVDKKVEPKSCGGGGSEVQLVESGGGLVQPGGSLRLSCAASGFTFSSYAMSWVRQAPGKGLEWVASISSGDTTYYPDSVKGRFTISRDNAKNSLYLQMNSLRAEDTAVYYCARNEGYYFGLTLWGQGTLVTVSSASTKGPSVFPKAPSSKSTSGGTAALGCLVKDYFPEPVTVSWNSGALTSGVHTFPAVLQSSGLYSLSSSVTVPSSSLGTQTYICNVNHKPSNTKVDKKVEPKSCDKTHTCPPCPAPEAAGAPSVFLFPPKPKDTLMISRTPEVTCVVVDVSHEDPEVKFNWYVDGVEVHNAKTKPREEQYNSTYRVVSVLTVLHQDWLNGKEYKCKVSNKALPAPIEKTISKAKGQPREPQVCTLPPSREEMTKNQVSLWCLVKGFYPSDIAVEWESNGQPENNYKTTPPVLDSDGSFFLYSKLTVDKSRWQQGNVFSCSVMHEALHNHYTQKSLSLSPGK
light 1: DIQMTQSPSSLSASVGDRVTITCKASQSVDEDGDSYMNWYQQKPGKAPKLLIYAASNLESGVPSRFSGSGSGTDFTLTISSLQPEDFATYYCQQSNEDPPTFGGGTKVEIKRTVAAPSVFIFPPSDEQLKSGTASVSCLLNNFYPREAKVQWKVDNALQSGNSQESVTEQDSKDSTYSLKSTLTLSKADYEKHKVYACEVTHQGLSSPVTKSFNRGEC
light 2: DIQMTQSPSSLSASVGDRVTITCKASESVDHFGWSLVHWYQQKPGKAPKLLIYRASNLESGVPSRFSGSGSGTDFTLTISSLQPEDFATYYCQQSNEDPWTFGGGTKVEIKRTVAAPSVFIFPPSDEQLKSGTASVSCLLNNFYPREAKVQWKVDNALQSGNSQESVTEQDSKDSTYSLDSTLTLSKADYEKHKVYACEVTHQGLSSPVTKSFNRGEC
chain 2: QMQLVESGGGVVQPGRSLRLSCAASGFTFRTYGMHWVRQAPGKGLEWVAVIWYDGSNKHYADSVKGRFTITRDNSKNTLNLQMNSLRAEDTAVYYCARAPQWELVHEAFDIWGQGTMVTVSSGQPKAAPSVTLFPPSSEELQANKATLVCLISDFYPGAVTVAWKADSSPVKAGVETTTPSKQSNNKYAASSYLSLTPEQWKSHRSYSCQVTHEGSTVEKTVAPTECS
B2 was tested. Which “a-hIL-13 bioassay (IC50, pM)” value (recombinant human IL-13) did it give?
Its value is 46.8 pM.

And the “a-hIL-4 bioassay IC50, pM)” value (recombinant human IL-4)?
The value was 7.09 pM.

What about the “a-TSLP TARC bioassay (IC50; pM)” value [1] of the same binder?
The value was 11.7 pM.

B3: IL413TSLP-0002 (other)
heavy: EVQLVESGGGLVQPGGSLRLSCAASGFTFSSYAMSWVRQAPGKGLEWVASISSGDTTYYPDSVKGRFTISRDNAKNSLYLQMNSLRAEDTAVYYCARNEGYYFGLTLWGQGTLVTVSSASTKGPSVFPKAPSSKSTSGGTAALGCLVKDYFPEPVTVSWNSGALTSGVHTFPAVLQSSGLYSLSSSVTVPSSSLGTQTYICNVNHKPSNTKVDKKVEPKSCDKTHTCPPCPAPEAAGAPSVFLFPPKPKDTLMISRTPEVTCVVVDVSHEDPEVKFNWYVDGVEVHNAKTKPREEQYNSTYRVVSVLTVLHQDWLNGKEYKCKVSNKALPAPIEKTISKAKGQPREPQVCTLPPSREEMTKNQVSLWCLVKGFYPSDIAVEWESNGQPENNYKTTPPVLDSDGSFFLYSKLTVDKSRWQQGNVFSCSVMHEALHNHYTQKSLSLSPGK
chain 1: QMQLVESGGGVVQPGRSLRLSCAASGFTFRTYGMHWVRQAPGKGLEWVAVIWYDGSNKHYADSVKGRFTITRDNSKNTLNLQMNSLRAEDTAVYYCARAPQWELVHEAFDIWGQGTMVTVSSGQPKAAPSVTLFPPSSEELQANKATLVCLISDFYPGAVTVAWKADSSPVKAGVETTTPSKQSNNKYAASSYLSLTPEQWKSHRSYSCQVTHEGSTVEKTVAPTECSGGGGSEVTLRESGPALVKPTQTLTLTCTFSGFSLSNFGEGLSWIRQPPGKGLEWLAHIYWDDDKRYNPSLKSRLTISKDTSRNQVVLTMTNMDPVDTATYYCARRETVFYWYFDVWGQGTTVTVSSASTKGPSVFPEAPSSKSTSGGTAALGCLVKDYFPEPVTVSWNSGALTSGVHTFPAVLQSSGLYSLGSVVTVPSSSLGTQTYICNVNHKPSNTKVDKKVEPKSCDKTHTCPPCPAPEAAGAPSVFLFPPKPKDTLMISRTPEVTCVVVDVSHEDPEVKFNWYVDGVEVHNAKTKPREEQYNSTYRVVSVLTVLHQDWLNGKEYKCKVSNKALPAPIEKTISKAKGQPREPQVYTLPPCREEMTKNQVSLSCAVKGFYPSDIAVEWESNGQPENNYKTTPPVLDSDGSFFLVSKLTVDKSRWQQGNVFSCSVMHEALHNHYTQKSLSLSPGK
light 1: DIQMTQSPSSLSASVGDRVTITCKASESVDHFGWSLVHWYQQKPGKAPKLLIYRASNLESGVPSRFSGSGSGTDFTLTISSLQPEDFATYYCQQSNEDPWTFGGGTKVEIKRTVAAPSVFIFPPSDEQLKSGTASVSCLLNNFYPREAKVQWKVDNALQSGNSQESVTEQDSKDSTYSLDSTLTLSKADYEKHKVYACEVTHQGLSSPVTKSFNRGEC
light 2: DIQMTQSPSSLSASVGDRVTITCKASQSVDEDGDSYMNWYQQKPGKAPKLLIYAASNLESGVPSRFSGSGSGTDFTLTISSLQPEDFATYYCQQSNEDPPTFGGGTKVEIKRTVAAPSVFIFPPSDEQLKSGTASVSCLLNNFYPREAKVQWKVDNALQSGNSQESVTEQDSKDSTYSLKSTLTLSKADYEKHKVYACEVTHQGLSSPVTKSFNRGEC
chain 2: SYVLTQPPSVSVAPGQTARITCGGNNLGSKSVHWYQQKPGQAPVLVVYDDSDRPSWIPERFSGSNSGNTATLTISRGEAGDEADYYCQVWDSSSDHVVFGGGTKLTVLASTKGPSVFPLAPSSKSTSGGTAALGCLVKDYFPEPVTVSWNSGALTSGVHTFPAVLQSSGLYSLSSVVTVPSSSLGTQTYICNVNHKPSNTKVDKKVEPKSC
Which results are given for B3?
a-hIL-13 bioassay (IC50, pM) (recombinant human IL-13): 10.6 pM; a-hIL-4 bioassay IC50, pM) (recombinant human IL-4): 8.59 pM; a-TSLP TARC bioassay (IC50; pM) [1]: 16.4 pM
